US20150353638A1 (INSTITUTE OF BASIC MEDICAL SCIENCES CHINESE ACADEMY OF …, published 2015)

Biological target: T1, antigen DR5 (human death receptor 5), immobilised on the CM5 chip (human, UniProt O14763 56-182, limits assumed)
T1 construct: The title says the antibodies are against the extracellular domain, but the construct used is not described; also called TRAIL receptor 2; TRAIL-R2
Test: SPR (Biacore X100), DR5 immobilised on CM5 chip, antibody injected as analyte

| Binder | Kd [nM] | koff [s⁻¹] | kon [M⁻¹ s⁻¹] |
| --- | --- | --- | --- |
| humanized anti-human DR5 monoclonal antibody AD15 (antibody, human IgG1, kappa, Humanized from murine AD5-10 by CDR grafting; human IgG1 heavy chain constant region and kappa light chain) heavy: not shown light: DVVMTQSPLSLPVTPGEPASISCRSSQSLVHSNGNTYLHWYLQKPGQSPQLLIYKVSNRFSGVPDRFSGSGSGTDFTLKISRVEAEDVGVYFCFQSTHVPHTFGQGTKLEIKRTVAAPSVFIFPPSDEQLKSGTASVVCLLNNFYPREAKVQWKVDNALQSGNSQESVTEQDSKDSTYSLSSTLTLSKADYEKHKVYACEVTHQGLSSPVTKSFNRGEC | 2.95 | 0.0097 | 3.28e+06 |
| humanized anti-human DR5 monoclonal antibody AD10 (antibody, human IgG1, kappa, V domains shown, Humanized from murine AD5-10 by CDR grafting; human IgG1 heavy chain constant region and kappa light chain) VH: EIQLVQSGPELKKPGASVKVSCKASGYTFTDFSMNWVRQAPGQGLKWMGWINTETGEPTYADDFKGRFALSMDTSVSTAYLQISSLKAEDTAVYFCVRIDYWGQGTTVTVSS VL: DIVMTQSPLSLPVTPGEPASISCRSSQSLVHSNGNTYLHWYLQKPGQSPQLLIYKVSNRFSGVPDRFSGSGSGTDFTLKISRVEAEDVGVYYCFQSTHVPHTFGQGTKLEIKR | 3.51 | 0.0198 | 5.64e+06 |
| humanized anti-human DR5 monoclonal antibody AD14 (antibody, human IgG1, kappa, Humanized from murine AD5-10 by CDR grafting; human IgG1 heavy chain constant region and kappa light chain) heavy: not shown light: DVVMTQSPLSLPVTPGEPASISCRSSQSLVHSNGNTYLHWYLQKPGQSPQLLIYKVSNRFSGVPDRFSGSGSGTDFTLKISRVEAEDVGVYFCFQSTHVPHTFGQGTKLEIKRTVAAPSVFIFPPSDEQLKSGTASVVCLLNNFYPREAKVQWKVDNALQSGNSQESVTEQDSKDSTYSLSSTLTLSKADYEKHKVYACEVTHQGLSSPVTKSFNRGEC | 1.65 | 0.014 | 8.44e+06 |
